Reference: patent publication US20140087995A1 (published 2014)
Numbered stars: 1 amine (or outer) side, 2 acyl side, 3 side chain; on linkers, the order of the positions; unused ones are H or OH. Bridge positions count the residues as written; N and C are the ends. Side chains are listed from the residue outwards. Ends that are not written are not given here. * marks the point of attachment. C20 diacid = O=C(O)CCCCCCCCCCCCCCCCCCC(=O)*; γGlu = O=C(O)[C@H](CCC(=O)[*:2])N[*:1]; AEEA = NCCOCCOCC(=O)O

T1: rat calcitonin receptor (rat, UniProt P32214 25-516)
T1 construct: whole, on cells; also called rCTR; rat calcitonin (a) receptor
T1 sequence (looked up): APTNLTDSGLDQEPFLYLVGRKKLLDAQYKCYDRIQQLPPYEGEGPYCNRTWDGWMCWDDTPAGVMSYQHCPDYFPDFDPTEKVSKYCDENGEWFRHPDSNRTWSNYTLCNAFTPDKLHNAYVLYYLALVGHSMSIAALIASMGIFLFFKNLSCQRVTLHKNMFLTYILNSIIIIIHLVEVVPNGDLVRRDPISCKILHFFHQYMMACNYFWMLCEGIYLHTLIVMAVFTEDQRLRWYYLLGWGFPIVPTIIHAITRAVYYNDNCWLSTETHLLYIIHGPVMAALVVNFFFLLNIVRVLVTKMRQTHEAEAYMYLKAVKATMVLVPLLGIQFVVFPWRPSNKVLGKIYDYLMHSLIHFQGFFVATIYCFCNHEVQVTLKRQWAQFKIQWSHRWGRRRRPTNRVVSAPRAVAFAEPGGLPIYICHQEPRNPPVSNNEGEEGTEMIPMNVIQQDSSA

T2: human calcitonin receptor (human, UniProt P30988 25-474)
T2 construct: whole, on cells; also called hCTR; hCT
T2 sequence (looked up): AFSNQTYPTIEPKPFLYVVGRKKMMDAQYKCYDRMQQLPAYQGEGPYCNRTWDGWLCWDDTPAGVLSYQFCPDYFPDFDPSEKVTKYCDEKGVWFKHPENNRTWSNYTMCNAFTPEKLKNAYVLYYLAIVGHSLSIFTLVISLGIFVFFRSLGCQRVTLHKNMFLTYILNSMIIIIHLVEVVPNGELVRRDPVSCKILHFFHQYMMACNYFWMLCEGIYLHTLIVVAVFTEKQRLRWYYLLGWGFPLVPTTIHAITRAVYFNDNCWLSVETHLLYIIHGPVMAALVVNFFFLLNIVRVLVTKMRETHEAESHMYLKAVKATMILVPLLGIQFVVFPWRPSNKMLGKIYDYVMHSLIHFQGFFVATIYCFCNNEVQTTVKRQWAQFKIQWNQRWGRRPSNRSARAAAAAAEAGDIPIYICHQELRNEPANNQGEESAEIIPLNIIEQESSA

T3: rat amylin receptor (rat calcitonin receptor + rat RAMP 3) (rat, UniProt P32214 25-516; Q9JJ73 23-147)
T3 construct: whole, on cells; also called rAmylin-R; rat amylin 3(a) receptor
T3 sequence (looked up) 1: T1 sequence (looked up)
T3 sequence (looked up) 2: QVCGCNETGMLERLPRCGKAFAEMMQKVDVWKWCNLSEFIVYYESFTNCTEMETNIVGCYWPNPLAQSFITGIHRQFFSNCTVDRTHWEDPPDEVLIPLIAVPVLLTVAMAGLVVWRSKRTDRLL

B1: N^ε1-[2-[2-[2-[[(4S)-4-carboxy-4-(19-carboxynonadecanoylamino)butanoyl]amino]ethoxy]ethoxy]acetyl]-[His14,Arg17,Pro21,Pro27,Pro34]-h-amylin (peptide)
peptide: K([AEEA-γGlu-C20 diacid])CNTATCATQRLAHFLRHSSPNFGAIPSSTNVGPNTY-NH2
modifications: disulfide 2-7; N-terminus assumed
SMILES: CC[C@H](C)[C@H](NC(=O)[C@H](C)NC(=O)CNC(=O)[C@H](Cc1ccccc1)NC(=O)[C@H](CC(N)=O)NC(=O)[C@@H]1CCCN1C(=O)[C@H](CO)NC(=O)[C@H](CO)NC(=O)[C@H](Cc1c[nH]cn1)NC(=O)[C@H](CCCNC(=N)N)NC(=O)[C@H](CC(C)C)NC(=O)[C@H](Cc1ccccc1)NC(=O)[C@H](Cc1c[nH]cn1)NC(=O)[C@H](C)NC(=O)[C@H](CC(C)C)NC(=O)[C@H](CCCNC(=N)N)NC(=O)[C@H](CCC(N)=O)NC(=O)[C@@H](NC(=O)[C@H](C)NC(=O)[C@@H]1CSSC[C@H](NC(=O)[C@@H](N)CCCCNC(=O)COCCOCCNC(=O)CC[C@H](NC(=O)CCCCCCCCCCCCCCCCCCC(=O)O)C(=O)O)C(=O)N[C@@H](CC(N)=O)C(=O)N[C@@H]([C@@H](C)O)C(=O)N[C@@H](C)C(=O)N[C@@H]([C@@H](C)O)C(=O)N1)[C@@H](C)O)C(=O)N1CCC[C@H]1C(=O)N[C@@H](CO)C(=O)N[C@@H](CO)C(=O)N[C@H](C(=O)N[C@@H](CC(N)=O)C(=O)N[C@H](C(=O)NCC(=O)N1CCC[C@H]1C(=O)N[C@@H](CC(N)=O)C(=O)N[C@H](C(=O)N[C@@H](Cc1ccc(O)cc1)C(N)=O)[C@@H](C)O)C(C)C)[C@@H](C)O
notes: synthetic analogue of human amylin; also called compound 68
B2: N^ε1-[2-[2-[2-[[(4S)-4-carboxy-4-(19-carboxynonadecanoylamino)butanoyl]amino]ethoxy]ethoxy]acetyl]-[Ser14,Arg17,Pro21,Pro27,Pro31]-h-amylin (peptide)
peptide: K([AEEA-γGlu-C20 diacid])CNTATCATQRLASFLRHSSPNFGAIPSSTPVGSNTY-NH2
modifications: disulfide 2-7; N-terminus assumed
SMILES: CC[C@H](C)[C@H](NC(=O)[C@H](C)NC(=O)CNC(=O)[C@H](Cc1ccccc1)NC(=O)[C@H](CC(N)=O)NC(=O)[C@@H]1CCCN1C(=O)[C@H](CO)NC(=O)[C@H](CO)NC(=O)[C@H](Cc1c[nH]cn1)NC(=O)[C@H](CCCNC(=N)N)NC(=O)[C@H](CC(C)C)NC(=O)[C@H](Cc1ccccc1)NC(=O)[C@H](CO)NC(=O)[C@H](C)NC(=O)[C@H](CC(C)C)NC(=O)[C@H](CCCNC(=N)N)NC(=O)[C@H](CCC(N)=O)NC(=O)[C@@H](NC(=O)[C@H](C)NC(=O)[C@@H]1CSSC[C@H](NC(=O)[C@@H](N)CCCCNC(=O)COCCOCCNC(=O)CC[C@H](NC(=O)CCCCCCCCCCCCCCCCCCC(=O)O)C(=O)O)C(=O)N[C@@H](CC(N)=O)C(=O)N[C@@H]([C@@H](C)O)C(=O)N[C@@H](C)C(=O)N[C@@H]([C@@H](C)O)C(=O)N1)[C@@H](C)O)C(=O)N1CCC[C@H]1C(=O)N[C@@H](CO)C(=O)N[C@@H](CO)C(=O)N[C@H](C(=O)N1CCC[C@H]1C(=O)N[C@H](C(=O)NCC(=O)N[C@@H](CO)C(=O)N[C@@H](CC(N)=O)C(=O)N[C@H](C(=O)N[C@@H](Cc1ccc(O)cc1)C(N)=O)[C@@H](C)O)C(C)C)[C@@H](C)O
notes: synthetic analogue of human amylin; also called compound 73
B3: N^ε1-[2-[2-[2-[[(4S)-4-carboxy-4-(19-carboxynonadecanoylamino)butanoyl]amino]ethoxy]ethoxy]acetyl]-[Lys14,Arg17,Pro21,Pro27,Pro31]-h-amylin (peptide)
peptide: K([AEEA-γGlu-C20 diacid])CNTATCATQRLAKFLRHSSPNFGAIPSSTPVGSNTY-NH2
modifications: disulfide 2-7; N-terminus assumed
SMILES: CC[C@H](C)[C@H](NC(=O)[C@H](C)NC(=O)CNC(=O)[C@H](Cc1ccccc1)NC(=O)[C@H](CC(N)=O)NC(=O)[C@@H]1CCCN1C(=O)[C@H](CO)NC(=O)[C@H](CO)NC(=O)[C@H](Cc1c[nH]cn1)NC(=O)[C@H](CCCNC(=N)N)NC(=O)[C@H](CC(C)C)NC(=O)[C@H](Cc1ccccc1)NC(=O)[C@H](CCCCN)NC(=O)[C@H](C)NC(=O)[C@H](CC(C)C)NC(=O)[C@H](CCCNC(=N)N)NC(=O)[C@H](CCC(N)=O)NC(=O)[C@@H](NC(=O)[C@H](C)NC(=O)[C@@H]1CSSC[C@H](NC(=O)[C@@H](N)CCCCNC(=O)COCCOCCNC(=O)CC[C@H](NC(=O)CCCCCCCCCCCCCCCCCCC(=O)O)C(=O)O)C(=O)N[C@@H](CC(N)=O)C(=O)N[C@@H]([C@@H](C)O)C(=O)N[C@@H](C)C(=O)N[C@@H]([C@@H](C)O)C(=O)N1)[C@@H](C)O)C(=O)N1CCC[C@H]1C(=O)N[C@@H](CO)C(=O)N[C@@H](CO)C(=O)N[C@H](C(=O)N1CCC[C@H]1C(=O)N[C@H](C(=O)NCC(=O)N[C@@H](CO)C(=O)N[C@@H](CC(N)=O)C(=O)N[C@H](C(=O)N[C@@H](Cc1ccc(O)cc1)C(N)=O)[C@@H](C)O)C(C)C)[C@@H](C)O
notes: synthetic analogue of human amylin; also called compound 74
B4: N^ε1-[2-[2-[2-[[(4S)-4-carboxy-4-(19-carboxynonadecanoylamino)butanoyl]amino]ethoxy]ethoxy]acetyl]-[Thr14,Arg17,Pro21,Pro27,Pro31]-h-amylin (peptide)
peptide: K([AEEA-γGlu-C20 diacid])CNTATCATQRLATFLRHSSPNFGAIPSSTPVGSNTY-NH2
modifications: disulfide 2-7; N-terminus assumed
SMILES: CC[C@H](C)[C@H](NC(=O)[C@H](C)NC(=O)CNC(=O)[C@H](Cc1ccccc1)NC(=O)[C@H](CC(N)=O)NC(=O)[C@@H]1CCCN1C(=O)[C@H](CO)NC(=O)[C@H](CO)NC(=O)[C@H](Cc1c[nH]cn1)NC(=O)[C@H](CCCNC(=N)N)NC(=O)[C@H](CC(C)C)NC(=O)[C@H](Cc1ccccc1)NC(=O)[C@@H](NC(=O)[C@H](C)NC(=O)[C@H](CC(C)C)NC(=O)[C@H](CCCNC(=N)N)NC(=O)[C@H](CCC(N)=O)NC(=O)[C@@H](NC(=O)[C@H](C)NC(=O)[C@@H]1CSSC[C@H](NC(=O)[C@@H](N)CCCCNC(=O)COCCOCCNC(=O)CC[C@H](NC(=O)CCCCCCCCCCCCCCCCCCC(=O)O)C(=O)O)C(=O)N[C@@H](CC(N)=O)C(=O)N[C@@H]([C@@H](C)O)C(=O)N[C@@H](C)C(=O)N[C@@H]([C@@H](C)O)C(=O)N1)[C@@H](C)O)[C@@H](C)O)C(=O)N1CCC[C@H]1C(=O)N[C@@H](CO)C(=O)N[C@@H](CO)C(=O)N[C@H](C(=O)N1CCC[C@H]1C(=O)N[C@H](C(=O)NCC(=O)N[C@@H](CO)C(=O)N[C@@H](CC(N)=O)C(=O)N[C@H](C(=O)N[C@@H](Cc1ccc(O)cc1)C(N)=O)[C@@H](C)O)C(C)C)[C@@H](C)O
notes: synthetic analogue of human amylin; also called compound 75
B5: N^ε1-[(4S)-4-carboxy-4-(19-carboxynonadecanoylamino)butanoyl]-[Arg14,Arg17,Pro21,Pro27,Pro31]-h-amylin (peptide)
peptide: K([γGlu-C20 diacid])CNTATCATQRLARFLRHSSPNFGAIPSSTPVGSNTY-NH2
modifications: disulfide 2-7; N-terminus assumed
SMILES: CC[C@H](C)[C@H](NC(=O)[C@H](C)NC(=O)CNC(=O)[C@H](Cc1ccccc1)NC(=O)[C@H](CC(N)=O)NC(=O)[C@@H]1CCCN1C(=O)[C@H](CO)NC(=O)[C@H](CO)NC(=O)[C@H](Cc1c[nH]cn1)NC(=O)[C@H](CCCNC(=N)N)NC(=O)[C@H](CC(C)C)NC(=O)[C@H](Cc1ccccc1)NC(=O)[C@H](CCCNC(=N)N)NC(=O)[C@H](C)NC(=O)[C@H](CC(C)C)NC(=O)[C@H](CCCNC(=N)N)NC(=O)[C@H](CCC(N)=O)NC(=O)[C@@H](NC(=O)[C@H](C)NC(=O)[C@@H]1CSSC[C@H](NC(=O)[C@@H](N)CCCCNC(=O)CC[C@H](NC(=O)CCCCCCCCCCCCCCCCCCC(=O)O)C(=O)O)C(=O)N[C@@H](CC(N)=O)C(=O)N[C@@H]([C@@H](C)O)C(=O)N[C@@H](C)C(=O)N[C@@H]([C@@H](C)O)C(=O)N1)[C@@H](C)O)C(=O)N1CCC[C@H]1C(=O)N[C@@H](CO)C(=O)N[C@@H](CO)C(=O)N[C@H](C(=O)N1CCC[C@H]1C(=O)N[C@H](C(=O)NCC(=O)N[C@@H](CO)C(=O)N[C@@H](CC(N)=O)C(=O)N[C@H](C(=O)N[C@@H](Cc1ccc(O)cc1)C(N)=O)[C@@H](C)O)C(C)C)[C@@H](C)O
notes: synthetic analogue of human amylin; also called compound 63

Target: T1, rat calcitonin receptor
Assay: ratio of binding IC50s: rat calcitonin receptor over rat amylin receptor (reference)

Binder | Ratio rCT/rAmylin binding
B1 | 122
B2 | 178
B3 | 22.3
B4 | 110
B5 | 35.6

Target: T2, human calcitonin receptor
Assay: ratio of binding IC50s: human calcitonin receptor over human amylin receptor (reference)
Summary of the method: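 Competition binding by SPA with cell membranes (35 ng/μL) and SPA beads in 50 mM Hepes pH 7.4 with 1 mM CaCl2, 5 mM MgCl2, 0.1% OA and 0.02% Tween20. Incubated 120 min at 25 °C with shaking, then counted.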

Binder | Ratio hCT/hAmylin binding
B1 | 64.4
B2 | 51.7
B3 | 101
B4 | 91.4
B5 | 157

Target: T1, rat calcitonin receptor
Assay: SPA competition with 125I-calcitonin, membranes of BHK cells with rat calcitonin receptor (Assay VIII)

Binder | IC50 [nM]
B1 | 28.5
B2 | 50.3
B3 | 109
B4 | 442
B5 | 124

Target: T3, rat amylin receptor (rat calcitonin …)
Assay: SPA competition with 125I-rat amylin, membranes of BHK cells with rat calcitonin receptor + rat RAMP3 (Assay VI)

Binder | IC50 [nM]
B1 | 0.234
B2 | 0.283
B3 | 4.89
B4 | 4.03
B5 | 3.48
